“And” between values parts separate entries of the source, which are not always exact repeats. Equal entries are not always repeated. Values belong to the substance of their own block, whether it stands above or below them.
Key:
[1] = target: Flt3 receptor on OCI-AML5 cells (human) (UniProt P36888); experiment: cell-based or functional assay
[2] = target: mouse thrombopoietin receptor cMPL expressed on the surface of Freestyle HEK293 cells (mouse) (UniProt Q08351); experiment: flow cytometry on mouse cMPL-expressing HEK293 cells, fluorescent anti-IgG1 secondary antibody
Sequence of mouse thrombopoietin receptor cMPL expressed on the surface of Freestyle HEK293 cells (mouse) (Q08351 26-625): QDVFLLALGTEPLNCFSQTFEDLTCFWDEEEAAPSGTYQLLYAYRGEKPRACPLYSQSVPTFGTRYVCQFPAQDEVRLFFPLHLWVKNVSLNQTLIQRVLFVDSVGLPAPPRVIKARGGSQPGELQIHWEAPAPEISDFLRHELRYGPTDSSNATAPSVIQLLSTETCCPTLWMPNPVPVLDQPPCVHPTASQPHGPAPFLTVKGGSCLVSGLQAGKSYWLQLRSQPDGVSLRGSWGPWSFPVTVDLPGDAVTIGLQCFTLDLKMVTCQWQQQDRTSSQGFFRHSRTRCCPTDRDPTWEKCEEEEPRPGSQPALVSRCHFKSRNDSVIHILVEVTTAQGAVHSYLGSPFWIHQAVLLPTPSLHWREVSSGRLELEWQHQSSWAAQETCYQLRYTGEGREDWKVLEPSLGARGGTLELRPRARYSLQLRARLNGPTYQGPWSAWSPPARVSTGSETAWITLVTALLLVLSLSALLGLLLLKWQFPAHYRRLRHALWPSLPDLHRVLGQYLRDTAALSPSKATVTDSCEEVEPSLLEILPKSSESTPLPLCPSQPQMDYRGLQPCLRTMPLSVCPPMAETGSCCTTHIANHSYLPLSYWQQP

[3] = target: human thrombopoietin receptor cMPL expressed on the surface of Freestyle HEK293 cells (human) (UniProt P40238); experiment: flow cytometry on human cMPL-expressing HEK293 cells, fluorescent anti-IgG1 secondary antibody
[4] = target: cMPL/TPO receptor on M-07e cells (human) (UniProt P40238); experiment: cell-based or functional assay

Sequence of Flt3 receptor on OCI-AML5 cells (human) (P36888 27-993): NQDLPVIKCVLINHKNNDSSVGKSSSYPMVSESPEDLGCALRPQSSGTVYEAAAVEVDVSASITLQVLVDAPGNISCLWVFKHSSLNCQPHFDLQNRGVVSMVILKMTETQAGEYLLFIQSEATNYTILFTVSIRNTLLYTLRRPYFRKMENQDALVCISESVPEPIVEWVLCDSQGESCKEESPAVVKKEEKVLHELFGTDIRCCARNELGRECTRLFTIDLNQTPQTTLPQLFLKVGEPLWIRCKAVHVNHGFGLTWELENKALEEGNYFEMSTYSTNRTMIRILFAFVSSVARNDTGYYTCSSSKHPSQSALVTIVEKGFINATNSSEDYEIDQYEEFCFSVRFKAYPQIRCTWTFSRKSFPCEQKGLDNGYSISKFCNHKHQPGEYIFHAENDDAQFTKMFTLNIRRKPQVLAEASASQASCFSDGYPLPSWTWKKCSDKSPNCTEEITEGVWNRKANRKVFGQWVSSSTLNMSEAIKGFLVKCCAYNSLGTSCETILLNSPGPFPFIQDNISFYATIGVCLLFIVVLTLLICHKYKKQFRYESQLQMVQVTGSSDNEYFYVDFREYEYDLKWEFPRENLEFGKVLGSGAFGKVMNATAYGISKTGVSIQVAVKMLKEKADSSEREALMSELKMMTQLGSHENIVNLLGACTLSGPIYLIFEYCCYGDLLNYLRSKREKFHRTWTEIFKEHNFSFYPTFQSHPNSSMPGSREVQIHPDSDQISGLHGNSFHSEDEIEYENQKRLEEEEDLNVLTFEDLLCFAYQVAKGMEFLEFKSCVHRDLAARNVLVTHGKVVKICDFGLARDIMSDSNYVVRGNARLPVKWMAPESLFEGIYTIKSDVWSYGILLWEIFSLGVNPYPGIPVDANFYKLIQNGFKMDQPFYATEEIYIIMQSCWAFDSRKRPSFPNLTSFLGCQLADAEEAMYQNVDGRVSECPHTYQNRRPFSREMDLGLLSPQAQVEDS

apoptosis of starved OCI-AML5 cells, Annexin V flow cytometry [1]: 53.8%
live cells, starved OCI-AML5, Annexin V flow cytometry [1]: 45.8%
percent of OCI-AML5 cells positive for Erk1/2 phosphorylation [1]: 75%
Substance: FL monomer Fc fusion polypeptide

percentage of bound cells [2]: > 40 percent and 50 percent
percentage of bound cells [3]: > 30 percent and 40 percent
Substance: FLT3L-romiplostim fusion polypeptide without a His-Tag (Fc fusion)

percentage of bound cells [2]: > 40 percent
percentage of bound cells [3]: > 30 percent
EC50 of M-07e cell proliferation, XTT assay [4]: 12.1 nM
percent of M-07e cells positive for Akt phosphorylation [4]: 20%
percent of M-07e cells positive for Erk1/2 phosphorylation at 6.67 nM [4]: 60%
percent of M-07e cells positive for Erk1/2 phosphorylation at 13.33 nM [4]: 60%
percent of M-07e cells positive for Erk1/2 phosphorylation, 25 ng/ml to 800 ng/ml romiplostim [4]: 60%
Substance: Nplate (Romiplostim) (Fc fusion)

percent of M-07e cells positive for Akt phosphorylation [4]: < 5%
percent of M-07e cells positive for Erk1/2 phosphorylation at 25 ng/ml TPOm [4]: < 5%
percent of M-07e cells positive for Erk1/2 phosphorylation at 800 ng/ml TPOm [4]: 20%
Substance: thrombopoietin mimetic (TPOm) peptide
